Results published in US20070192880A1, “Horming response element binding transregulators” (UNIVERSITY OF ROCHESTER, priority 2003, published 2007).

Columns and labels:
[1] = system: consensus RXRE 5′-AGGTCAnAGGTCA-3′; assay: luciferase reporter bearing one RXRE, COS-1 cells; assay type: cell-based, African green monkey; conditions: RXRα with 10^−6 M 9-cis retinoic acid
Experimental: (§1) An ERE drives the expression of the firefly luciferase cDNA as the reporter enzyme from the TATA box promoter. […] The reporter vector contains no (TATA) or two ERE half sites with 0, 1, 2, 3, 4, 5, 10 or 15 non-specific central nucleotides. FIGS. 4C and 4D show COS-1 cells were transfected with expression vectors bearing none (V), RXRα (Panel C) PR (Panel D), ERα, (VP16)2-CDC-(p65)2 or (p65)2-CDC-(VP16)2 cDNA. Cells were treated with 10^−6 M 9-cis-retinoic acid for RXRα, 10^−8 M Progesterone for PR or 10^−9 M E2 for ERα for 24 h. The TATA box reporter vector bears one consensus RXRE 5′-AGGTCAnAGGTCA-′3 (Panel C) or PRE 5′-AGAACAnnnTGTTCT-3′ (panel D) that drives the expression of the reporter firefly luciferase cDNA. Normalized luciferase values represented as fold change are the mean±SEM of three independent experiments performed in duplicate.
(§2) Culturing and transfection of the mammalian COS-1 and […] MDA-MB-231 cells were described previously (Muyan, M. et al. (2001) Mol Cell Endocrinol 182,249-263; Yi, P. et al. (2002) Mol Endocrinol 16, 1810-1827), with the exceptions that 48 well cell culture plates were used and Trans-IT LTI transfection reagent (Mirus Corp., Madison, Wis.). Luciferase assays were performed with a Dual Luciferase Assay kit (Promega) according to the manufacture's recornmendations. […]

[2] = system: PRE 5′-AGAACAnnnTGTTCT-3′; assay: luciferase reporter bearing a single PRE, COS-1 cells; assay type: cell-based, African green monkey; conditions: PR with 10^−8 M Progesterone
Experimental: as §1, §2

B1: Retinoic X Receptor α (protein, UniProt P19793 1-462, looked up)
Retinoic acid receptor …: MDTKHFLPLDFSTQVNSSLTSPTGRGSMAAPSLHPSLGPGIGSPGQLHSPISTLSSPINGMGPPFSVISSPMGPHSMSVPTTPTLGFSTGSPQLSSPMNPVSSSEDIKPPLGLNGVLKVPAHPSGNMASFTKHICAICGDRSSGKHYGVYSCEGCKGFFKRTVRKDLTYTCRDNKDCLIDKRQRNRCQYCRYQKCLAMGMKREAVQEERQRGKDRNENEVESTSSANEDMPVERILEAELAVEPKTETYVEANMGLNPSSPNDPVTNICQAADKQLFTLVEWAKRIPHFSELPLDDQVILLRAGWNELLIASFSHRSIAVKDGILLATGLHVHRNSAHSAGVGAIFDRVLTELVSKMRDMQMDKTELGCLRAIVLFNPDSKGLSNPAEVEALREKVYASLEAYCKHKYPEQPGRFAKLLLRLPALRSIGLKCLEHLFFFKLIGDTPIDTFLMEMLEAPHQMT
modifications: treated with 9-cis retinoic acid
notes: expressed from vector, treated with 9-cis retinoic acid
luciferase activity from a reporter plasmid bearing one RXRE [1]: augmented the enzyme activity

B2: Progesterone Receptor (protein, UniProt P06401 1-933, looked up)
Progesterone receptor: MTELKAKGPRAPHVAGGPPSPEVGSPLLCRPAAGPFPGSQTSDTLPEVSAIPISLDGLLFPRPCQGQDPSDEKTQDQQSLSDVEGAYSRAEATRGAGGSSSSPPEKDSGLLDSVLDTLLAPSGPGQSQPSPPACEVTSSWCLFGPELPEDPPAAPATQRVLSPLMSRSGCKVGDSSGTAAAHKVLPRGLSPARQLLLPASESPHWSGAPVKPSPQAAAVEVEEEDGSESEESAGPLLKGKPRALGGAAAGGGAAAVPPGAAAGGVALVPKEDSRFSAPRVALVEQDAPMAPGRSPLATTVMDFIHVPILPLNHALLAARTRQLLEDESYDGGAGAASAFAPPRSSPCASSTPVAVGDFPDCAYPPDAEPKDDAYPLYSDFQPPALKIKEEEEGAEASARSPRSYLVAGANPAAFPDFPLGPPPPLPPRATPSRPGEAAVTAAPASASVSSASSSGSTLECILYKAEGAPPQQGPFAPPPCKAPGASGCLLPRDGLPSTSASAAAAGAAPALYPALGLNGLPQLGYQAAVLKEGLPQVYPPYLNYLRPDSEASQSPQYSFESLPQKICLICGDEASGCHYGVLTCGSCKVFFKRAMEGQHNYLCAGRNDCIVDKIRRKNCPACRLRKCCQAGMVLGGRKFKKFNKVRVVRALDAVALPQPVGVPNESQALSQRFTFSPGQDIQLIPPLINLLMSIEPDVIYAGHDNTKPDTSSSLLTSLNQLGERQLLSVVKWSKSLPGFRNLHIDDQITLIQYSWMSLMVFGLGWRSYKHVSGQMLYFAPDLILNEQRMKESSFYSLCLTMWQIPQEFVKLQVSQEEFLCMKVLLLLNTIPLEGLRSQTQFEEMRSSYIRELIKAIGLRQKGVVSSSQRFYQLTKLLDNLHDLVKQLHLYCLNTFIQSRALSVEFPEMMSEVIAAQLPKILAGMVKPLLFHKK
notes: expressed from vector, treated with Progesterone
reporter enzyme activity from a single PRE [2]: enhanced the reporter enzyme activity
